Source: US20220064329A1 (Novo Nordisk, published 2022)

T1: recombinant human activated Factor VII (FVIIa) (human, UniProt P08709 61-212; P08709 213-466, ten glutamate residues of the Gla domain may be gamma-carboxylated)
T1 construct: chains tethered by a disulfide bond; also called Factor VIIa; rFVIIa
T1 sequence 1: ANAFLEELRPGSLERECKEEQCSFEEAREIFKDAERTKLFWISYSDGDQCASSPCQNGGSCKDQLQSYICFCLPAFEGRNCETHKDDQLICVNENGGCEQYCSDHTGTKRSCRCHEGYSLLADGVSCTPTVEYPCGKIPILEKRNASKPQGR
T1 sequence 2: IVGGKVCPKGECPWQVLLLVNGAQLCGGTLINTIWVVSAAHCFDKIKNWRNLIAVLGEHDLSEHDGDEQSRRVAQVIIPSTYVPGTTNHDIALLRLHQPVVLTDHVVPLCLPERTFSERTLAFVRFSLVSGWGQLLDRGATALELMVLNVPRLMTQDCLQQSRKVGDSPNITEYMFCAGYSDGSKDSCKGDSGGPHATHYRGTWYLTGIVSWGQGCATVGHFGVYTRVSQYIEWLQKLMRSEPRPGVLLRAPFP


Biological target: T1, recombinant human activated Factor VII …
Assay: BLI (Fortebio)

Row | Binder | Kd
1 | VH SEQ ID NO 578 / VL SEQ ID NO 494 (antibody, IgG4, V domains shown, humanized 11F2; IgG4 S228P/kappa) VH: QVQLQESGPGLVKPSDTLSLTCAVSGYSISSDSAWSWIRQPPGKGLEWIGYIQYSGSTNYNPSLKSRVTMSVDTSKNQFSLKLSSVTALDTAVYYCARSVNYYGNSFAVGPWGQGTLVTVSS VL: EIVLTQSPATLSLSPGERATLSCRASQGVSDYLHWYQQKPGQAPRLLIKYASQPATGIPARFSGSGSGTDFTLTISSLEPEDVAVYYCQNGHSFPLTFGQGTKLEIK | 28 nM
2 | VH SEQ ID NO 586 / VL SEQ ID NO 350 (antibody, IgG4, V domains shown, humanized 11F2; IgG4 S228P/kappa) VH: QVQLQESGPGLVKPSDTLSLTCAVSGYSISSDSAWSWIRQPPGKGLEWIGYIQYSGSTNYNPSLKSRVTMSVDTSKNQFSLKLSSVTALDTAVYYCARSVNYYGNSFAVGYWGQGTLVTVSS VL: EIVLTQSPATLSLSPGERATLSCRASQGISDYLHWYQQKPGQAPRLLIKYTSQPATGIPARFSGSGSGTDFTLTISSLEPEDFAVYYCQNGHSFPLTFGAGTKLELK | 12 nM
3 | VH SEQ ID NO 586 / VL SEQ ID NO 326 (antibody, IgG4, V domains shown, humanized 11F2; IgG4 S228P/kappa) VH: QVQLQESGPGLVKPSDTLSLTCAVSGYSISSDSAWSWIRQPPGKGLEWIGYIQYSGSTNYNPSLKSRVTMSVDTSKNQFSLKLSSVTALDTAVYYCARSVNYYGNSFAVGYWGQGTLVTVSS VL: EIVLTQSPATLSLSPGERATLSCRASQGISDYLHWYQQKPGEAPRLLIKYTSQPATGIPARFSGSGSGTDFTLTISSLEPEDFGVYYCQNGHSFPLTFGAGTKLELK | 9.9 nM
4 | VH SEQ ID NO 586 / VL SEQ ID NO 310 (antibody, IgG4, V domains shown, humanized 11F2; IgG4 S228P/kappa) VH: QVQLQESGPGLVKPSDTLSLTCAVSGYSISSDSAWSWIRQPPGKGLEWIGYIQYSGSTNYNPSLKSRVTMSVDTSKNQFSLKLSSVTALDTAVYYCARSVNYYGNSFAVGYWGQGTLVTVSS VL: EIVLTQSPATLSLSPGERATLSCRASQGISDYLAWYQQKPGQAPRLLIKYASQPATGIPARFSGSGSGTDFTLTISSLEPEDFAVYYCQNGHSFPLTFGQGTKLEIK | 1500 nM
5 | VH SEQ ID NO 586 / VL SEQ ID NO 334 (antibody, IgG4, V domains shown, humanized 11F2; IgG4 S228P/kappa) VH: QVQLQESGPGLVKPSDTLSLTCAVSGYSISSDSAWSWIRQPPGKGLEWIGYIQYSGSTNYNPSLKSRVTMSVDTSKNQFSLKLSSVTALDTAVYYCARSVNYYGNSFAVGYWGQGTLVTVSS VL: EIVLTQSPATLSLSPGERATLSCRASQGISDYLHWYQQKPGQAPRLLIKYASQPATGIPARFSGSGSGTDFTLTISSLEPEDFAVYYCQNGHSFPLTFGQGTKLEIK | 13 nM
6 | VH SEQ ID NO 586 / VL SEQ ID NO 342 (antibody, IgG4, V domains shown, humanized 11F2; IgG4 S228P/kappa) VH: QVQLQESGPGLVKPSDTLSLTCAVSGYSISSDSAWSWIRQPPGKGLEWIGYIQYSGSTNYNPSLKSRVTMSVDTSKNQFSLKLSSVTALDTAVYYCARSVNYYGNSFAVGYWGQGTLVTVSS VL: EIVLTQSPATLSLSPGERATLSCRASQGISDYLHWYQQKPGQAPRLLIKYTSQPATGIPARFSGSGSGRDFTLTISSLEPEDFAVYYCQNGHSFPLTFGAGTKLELK | 18 nM
7 | VH SEQ ID NO 578 / VL SEQ ID NO 502 (antibody, IgG4, V domains shown, humanized 11F2; IgG4 S228P/kappa) VH: QVQLQESGPGLVKPSDTLSLTCAVSGYSISSDSAWSWIRQPPGKGLEWIGYIQYSGSTNYNPSLKSRVTMSVDTSKNQFSLKLSSVTALDTAVYYCARSVNYYGNSFAVGPWGQGTLVTVSS VL: EIVLTQSPATLSLSPGERATLSCRASQGVSDYLHWYQQKPGQAPRLLIKYTSQPATGIPARFSGSGSGTDFTLTISSLEPEDFAVYYCQNGHSFPLTFGQGTKLEIK | 24 nM
8 | VH SEQ ID NO 586 / VL SEQ ID NO 318 (antibody, IgG4, V domains shown, humanized 11F2; IgG4 S228P/kappa) VH: QVQLQESGPGLVKPSDTLSLTCAVSGYSISSDSAWSWIRQPPGKGLEWIGYIQYSGSTNYNPSLKSRVTMSVDTSKNQFSLKLSSVTALDTAVYYCARSVNYYGNSFAVGYWGQGTLVTVSS VL: EIVLTQSPATLSLSPGERATLSCRASQGISDYLHWYQQKPGEAPRLLIKYTSQPATGIPARFSGSGSGTDFTLTISSLEPEDFAVYYCQNGHSFPLTFGQGTKLEIK | 9.8 nM

More lines, now with the values ahead:

Row | Kd | Binder
9 | 25 nM | VH SEQ ID NO 586 / VL SEQ ID NO 414 (antibody, IgG4, V domains shown, humanized 11F2; IgG4 S228P/kappa) VH: QVQLQESGPGLVKPSDTLSLTCAVSGYSISSDSAWSWIRQPPGKGLEWIGYIQYSGSTNYNPSLKSRVTMSVDTSKNQFSLKLSSVTALDTAVYYCARSVNYYGNSFAVGYWGQGTLVTVSS VL: EIVLTQSPATLSLSPGERATLSCRASQGVSDYLAWYQQKPGQAPRLLIKYASQPATGIPARFSGSGSGTDFTLTISSLEPEDFAVYYCQNGHSFPLTFGQGTKLEIK
10 | 13 nM | VH SEQ ID NO 586 / VL SEQ ID NO 430 (antibody, IgG4, V domains shown, humanized 11F2; IgG4 S228P/kappa) VH: QVQLQESGPGLVKPSDTLSLTCAVSGYSISSDSAWSWIRQPPGKGLEWIGYIQYSGSTNYNPSLKSRVTMSVDTSKNQFSLKLSSVTALDTAVYYCARSVNYYGNSFAVGYWGQGTLVTVSS VL: EIVLTQSPATLSLSPGERATLSCRASQGVSDYLAWYQQKPGQAPRLLIKYASQPATGIPARFSGSGSGTDFTLTISSLEPEDFGVYYCQNGHSFPLTFGQGTKLEIK
11 | 19 nM | VH SEQ ID NO 586 / VL SEQ ID NO 406 (antibody, IgG4, V domains shown, humanized 11F2; IgG4 S228P/kappa) VH: QVQLQESGPGLVKPSDTLSLTCAVSGYSISSDSAWSWIRQPPGKGLEWIGYIQYSGSTNYNPSLKSRVTMSVDTSKNQFSLKLSSVTALDTAVYYCARSVNYYGNSFAVGYWGQGTLVTVSS VL: EIVLTQSPATLSLSPGERATLSCRASQGVSDYLAWYQQKPGQAPRLLIKYASQPATGIPARFSGSGSGTDFTLTISSLEPEDFAVYYCQNGHSFPLTFGAGTKLEIK
12 | 17 nM | VH SEQ ID NO 586 / VL SEQ ID NO 382 (antibody, IgG4, V domains shown, humanized 11F2; IgG4 S228P/kappa) VH: QVQLQESGPGLVKPSDTLSLTCAVSGYSISSDSAWSWIRQPPGKGLEWIGYIQYSGSTNYNPSLKSRVTMSVDTSKNQFSLKLSSVTALDTAVYYCARSVNYYGNSFAVGYWGQGTLVTVSS VL: EIVLTQSPATLSLSPGERATLSCRASQGLSDYLHWYQQKPGEAPRLLIKYASQPATGIPARFSGSGSGTDFTLTISSLEPEDFAVYYCQNGHSFPLTFGQGTKLEIK
13 | 21 nM | VH SEQ ID NO 586 / VL SEQ ID NO 366 (antibody, IgG4, V domains shown, humanized 11F2; IgG4 S228P/kappa) VH: QVQLQESGPGLVKPSDTLSLTCAVSGYSISSDSAWSWIRQPPGKGLEWIGYIQYSGSTNYNPSLKSRVTMSVDTSKNQFSLKLSSVTALDTAVYYCARSVNYYGNSFAVGYWGQGTLVTVSS VL: EIVLTQSPATLSLSPGERATLSCRASQGLSDYLAWYQQKPGEAPRLLIKYASQPATGIPARFSGSGSGTDFTLTISSLEPEDFAVYYCQNGHSFPLTFGQGTKLEIK
14 | 11 nM | VH SEQ ID NO 586 / VL SEQ ID NO 358 (antibody, IgG4, V domains shown, humanized 11F2; IgG4 S228P/kappa) VH: QVQLQESGPGLVKPSDTLSLTCAVSGYSISSDSAWSWIRQPPGKGLEWIGYIQYSGSTNYNPSLKSRVTMSVDTSKNQFSLKLSSVTALDTAVYYCARSVNYYGNSFAVGYWGQGTLVTVSS VL: EIVLTQSPATLSLSPGERATLSCRASQGISDYLHWYQQKPGQAPRLLIKYTSQPATGIPARFSGSGSGTDFTLTISSLEPEDFAVYYCQNGHSFPLTFGQGTKLEIK
15 | 38 nM | VH SEQ ID NO 586 / VL SEQ ID NO 390 (antibody, IgG4, V domains shown, humanized 11F2; IgG4 S228P/kappa) VH: QVQLQESGPGLVKPSDTLSLTCAVSGYSISSDSAWSWIRQPPGKGLEWIGYIQYSGSTNYNPSLKSRVTMSVDTSKNQFSLKLSSVTALDTAVYYCARSVNYYGNSFAVGYWGQGTLVTVSS VL: EIVLTQSPATLSLSPGERATLSCRASQGVSDYLAWYQQKPGEAPRLLIKYASQPATGIPARFSGSGSGTDFTLTISSLEPEDFAVYYCQNGHSFPLTFGQGTKLEIK
16 | 23 nM | VH SEQ ID NO 586 / VL SEQ ID NO 438 (antibody, IgG4, V domains shown, humanized 11F2; IgG4 S228P/kappa) VH: QVQLQESGPGLVKPSDTLSLTCAVSGYSISSDSAWSWIRQPPGKGLEWIGYIQYSGSTNYNPSLKSRVTMSVDTSKNQFSLKLSSVTALDTAVYYCARSVNYYGNSFAVGYWGQGTLVTVSS VL: EIVLTQSPATLSLSPGERATLSCRASQGVSDYLAWYQQKPGQAPRLLIKYASQPATGIPARFSGSGSGTDFTLTISSLEPEDVAVYYCQNGHSFPLTFGQGTKLEIK
